Results on four substances are retold here after publication PMC4166039.

Where two headings read alike, the source gives them in different places.

Test in all cases: cross-linking
Assay [1] has as its target hamster IgG1 anti-CD3E antibody (145-2C11) (hamster).
Assay [2] deals with human IgG1 (human) [IgG part: P01857].
The target of assay [3] is human IgG2 isotype control antibody (human) [IgG part: P01859].
The target of assay [4] is human IgG4 isotype control antibody (human) [IgG part: P01861].
The target of assay [5] is human IgG1 (human) [IgG part: P01857]. This is another data set of the same source.
Assay [6] concerns the target mouse IgG2a (mouse).
In assay [7] the target is mouse IgG2b isotype control antibody (mouse) (UniProt P01867).
Assay [8] addresses mouse IgG3 (mouse).
In assay [9] the target is rat IgG2b anti-ICAM1 antibody (YN-1) (rat) (UniProt P20761).
Sequence of UniProt P20761 (P20761 whole entry, looked up): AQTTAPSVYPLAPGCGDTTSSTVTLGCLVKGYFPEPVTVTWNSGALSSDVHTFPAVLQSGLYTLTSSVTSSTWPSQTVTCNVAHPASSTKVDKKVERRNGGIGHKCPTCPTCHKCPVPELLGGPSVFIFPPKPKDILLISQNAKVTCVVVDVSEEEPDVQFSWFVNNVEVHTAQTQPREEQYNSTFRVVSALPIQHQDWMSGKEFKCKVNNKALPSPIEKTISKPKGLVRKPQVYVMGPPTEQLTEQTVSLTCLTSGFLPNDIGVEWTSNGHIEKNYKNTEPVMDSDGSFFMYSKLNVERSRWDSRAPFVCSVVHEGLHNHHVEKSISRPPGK
Assay [10] deals with rat IgG2c isotype control antibody (rat) (UniProt P20762).
Sequence of UniProt P20762 (P20762 whole entry, looked up): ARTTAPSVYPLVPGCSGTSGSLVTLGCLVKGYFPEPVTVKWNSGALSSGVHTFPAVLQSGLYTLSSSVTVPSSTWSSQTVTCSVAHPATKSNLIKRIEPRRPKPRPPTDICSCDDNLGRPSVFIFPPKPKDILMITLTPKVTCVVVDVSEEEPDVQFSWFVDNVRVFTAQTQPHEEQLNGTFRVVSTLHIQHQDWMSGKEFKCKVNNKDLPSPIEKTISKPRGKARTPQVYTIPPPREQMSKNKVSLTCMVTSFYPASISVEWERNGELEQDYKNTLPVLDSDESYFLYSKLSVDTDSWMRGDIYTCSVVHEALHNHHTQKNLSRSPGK
Assay [11] has as its target mouse IgG1 (mouse) [IgG part: P01868].
In assay [12] the target is rat IgG1 isotype control antibody (rat).
For assay [13], the target named is mouse IgG1 (mouse) [IgG part: P01868]. This is another data set of the same source.

In the case of “Protein Z K35BPA variant (designed binder)”, the percent of heavy chains cross-linked (1 h UV) in assay [1] was 30%; in [2], 47%; in assay [3], 17%; in assay [4], 50%; in [5] it was 50%. In assay [2], this substance had a percent of heavy chains cross-linked (2 h UV) of over 55%. The percent of intact IgG cross-linked (1 h UV) in assay [2] was 60%. The percent of intact IgG cross-linked (2 h UV) in assay [2] was over 70%.

Substance “Protein Z K35BPA variant with the background F5I mutation (designed binder)” had a percent of heavy chains cross-linked (1 h UV) in assay [1] of 37%.

For “Protein Z L17BPA variant (designed binder)”, the percent of heavy chains cross-linked (1 h UV) in [6] turned out to be 60%. In assay [7], this substance came in with a percent of heavy chains cross-linked (1 h UV) of 71%. In assay [8], this substance yielded a percent of heavy chains cross-linked (15 min UV) of over 70%, a percent of heavy chains cross-linked (1 h UV) of 80%, a percent of heavy chains cross-linked (2 h UV) of 90% and a percent of intact IgG cross-linked (15 min UV) of 90%. In assay [8], this substance registered a percent of intact IgG cross-linked (1 h UV) of over 95% and a percent of intact IgG cross-linked (2 h UV) of over 96%. For the same substance, the percent of heavy chains cross-linked (1 h UV) in assay [9] amounted to 20%. This substance also yielded a percent of heavy chains cross-linked (1 h UV) in assay [10] of 60%.

For “Protein Z Q32BPA variant (designed binder)”, the percent of heavy chains cross-linked (1 h UV) is 20% in assay [1]; 37% in assay [2]; 12% in assay [3]; 50% in assay [11]; 10% in assay [12]; 50% in [13]. The substance also gave a percent of heavy chains cross-linked (2 h UV) in assay [11] of over 55%. Moreover, the percent of intact IgG cross-linked (1 h UV) in assay [11] was 60%. This substance had a percent of intact IgG cross-linked (2 h UV) in [11] of over 70%.
